Where a chain is given by its changes, count along the chain named.
B1: 369_B07 (antibody, V domains shown)
VH: EVQLLESGGGLVQPGGSLRLSCAASGFTFDSYGMHWVRQAPGKGLEWVANINYNGGYKSYADSVKGRFTISRDNSKNTLYLQMNSLRAEDTAVYYCARAATWHDTHLDYWGQGTLVTVSS
VL: DIQMTQSPSSLSASVGDRVTITCRASQSIVSYVNWYQQKPGKAPKLVIYAATSLASGVPSRFSGSGSGTDFTLTISSLQPEDFATYYCQQSYDLPLTFGGGTKVEIK
notes: Group II
B2: 370_H08 (antibody, V domains shown)
VH: B1 VH with D30S, N50S, K58T, T101N
VL: B1 VL with V30L, V47L, L54R, A55H, D93S
notes: Group I
B3: 371_A09 (antibody, V domains shown)
VH: B1 VH with D30S, H35N, A49S, N50G, T101N, H106A
VL: B1 VL with S31T, L54R, L94S
notes: Group I
B4: 369_C09 (antibody, V domains shown)
VH: B1 VH with D30S, A49S, N50S, K58T, S59G
VL: B1 VL with V33L, L54R, A55H
notes: Group II
B5: 373_E11 (antibody, V domains shown)
VH: B1 VH with N50S, K58T, T101N, H106A
VL: B1 VL with V33L, L54R, L94S
notes: Group I
B6: 370_B06 (antibody, V domains shown)
VH: B1 VH with D30S, N50G, K58T
VL: B1 VL with L54R, D93E, L94T
notes: Group II
B7: 370_D06 (antibody, V domains shown)
VH: B1 VH with D30S, H35N, N50S, K58T, T101N
VL: B1 VL with V30I, V33L, D93S, L94S
notes: Group I
B8: 369_G10 (antibody, V domains shown)
VH: B1 VH with D30S, N50S, K58T, T101N, H106A
VL: B1 VL with V30L, V33L, L54R, L94S
notes: Group I
B9: 371_G07 (antibody, V domains shown)
VH: B1 VH with D30S, S31D, N50G, K58T
VL: B1 VL with L54R, D93S
notes: Group II
B10: 372_B11 (antibody, V domains shown)
VH: B1 VH with D30S, G33S, N50G, G55S, K58T, T101N
VL: B1 VL with V30L, S31T, L94T
notes: Group I
B11: 370_B01 (antibody, V domains shown)
VH: B1 VH with S31D, A49S, N50G, T101N, H106A
VL: B1 VL with V30L, V47L, A50V, T52S, L54R, D93S
notes: Group I
B12: 369_B08 (antibody, V domains shown)
VH: B1 VH with A49S, N50S, K58T
VL: B1 VL with V30L, V47L, L54R, D93E, L94S
notes: Group II
B13: 369_C06 (antibody, V domains shown)
VH: B1 VH with D30S, G33S, A49S, N50S
VL: B1 VL with V30L, V47L, L54R, L94S
notes: Group II
B14: 371_B02 (antibody, V domains shown)
VH: B1 VH with H35N, A49S, K58T
VL: B1 VL with V30L, S31T, D93N, L94N
notes: Group II
B15: 369_E03 (antibody, V domains shown)
VH: B1 VH with D30S, N50G, K58T
VL: B1 VL with V30L, V47L, D93E, L94N
notes: Group II
B16: 373_D11 (antibody, V domains shown)
VH: B1 VH with D30S, N50G, K58T
VL: B1 VL with V30L, S31T, V47L, L54R, L94N
notes: Group II
B17: 373_B01 (antibody, V domains shown)
VH: B1 VH with A49S, N50G
VL: B1 VL with V30L, L54R
notes: Group II
B18: 371_F07 (antibody, V domains shown)
VH: B1 VH with D30S, N50G, K58T
VL: B1 VL with V30L, S31T, V33L, V47L, Y92D, D93S, L94N
notes: Group II
B19: 372_E02 (antibody, V domains shown)
VH: B1 VH with D30S, H35N, N50S, K58T, T101N, H106A
VL: B1 VL with V30I, L54R
notes: Group I
B20: 370_G04 (antibody, V domains shown)
VH: B1 VH with D30S, A49S, N50G, K58T, S59G, T101N, H106A
VL: B1 VL with V30L, V47L, L54R, D93S, L94T
notes: Group I
B21: 371_D05 (antibody, V domains shown)
VH: B1 VH with S31D, A49S, N50G, K58T
VL: B1 VL with V30L, S31T, V33L, V47L, T52S, A55Q, L94S
notes: Group II
B22: 369_H03 (antibody, V domains shown)
VH: B1 VH with D30S, G33S, N50S, G55S, T101N, H106A
VL: B1 VL with V33L, V47L, A51T, L54R, L94T
notes: Group I
B23: 371_H02 (antibody, V domains shown)
VH: B1 VH with S31D, G33S, H35N, A49S, N50G, T101N
VL: B1 VL with V30I, V33L, D93E, L94N
notes: Group I
B24: 371_B11 (antibody, V domains shown)
VH: B1 VH with D30S, G33S, N50S, G55S, K58T
VL: B1 VL with V30L, S31T, V33L, V47L, L54R, D93E
notes: Group II
B25: 370_H05 (antibody, V domains shown)
VH: B1 VH with D30S, A49S, K58T
VL: B1 VL with V30L, V33L, V47L, T52S, A55Q, Y92D, D93S
notes: Group II
B26: 371_D12 (antibody, V domains shown)
VH: B1 VH with H35N, A49S, N50G, T101N, H106A
VL: B1 VL with V30L, V33L, V47L, L54R, D93E
notes: Group I
B27: 372_A09 (antibody, V domains shown)
VH: B1 VH with H35N, A49S, N50G, K58T, T101N, H106A
VL: B1 VL with V30L, V33L, L54R, D93N, L94S
notes: Group I
B28: 371_A04 (antibody, V domains shown)
VH: B1 VH with H35N, A49S, N50S, G55S, K58T, S59G, T101N, H106A
VL: B1 VL with V30L, S31T, V33L, V47L, A51V, L54R, L94T
notes: Group I
B29: 369_C11 (antibody, V domains shown)
VH: B1 VH with D30S, S31D, N50G, K58T, S59G
VL: B1 VL with V30L, V33L, L54R, L94T
notes: Group II
B30: 371_A05 (antibody, V domains shown)
VH: B1 VH with D30S, A49S
VL: B1 VL with V30L, S31T, V33L, V47L, L54R, Y92D, D93N
notes: Group II
B31: 374_A12 (antibody, V domains shown)
VH: B1 VH with A49S, N50S, K58T
VL: B1 VL with V30L, S31T, V33L, V47L, L54R, Y92D, D93S, L94N
notes: Group II
B32: 372_D07 (antibody, V domains shown)
VH: B1 VH with D30S, H35N, N50G, K58T
VL: B1 VL with V30L, V33L, V47L, L54R, D93E, L94S
notes: Group II
B33: 370_E12 (antibody, V domains shown)
VH: B1 VH with N50G, K58T
VL: B1 VL with V30L, V47L, L54R, D93E, L94N
notes: Group II
B34: 371_C02 (antibody, V domains shown)
VH: B1 VH with N50G, G55S, K58T, S59G
VL: B1 VL with V30L, S31T, V47L, T52S, A55Q, L94T
notes: Group II
B35: 370_B07 (antibody, V domains shown)
VH: B1 VH with D30S, G55S
VL: B1 VL with V30L, S31T, V47L, L54R, A55H, D93S, L94S
notes: Group II
B36: 373_G06 (antibody, V domains shown)
VH: B1 VH with D30S, N50S, G55S, K58T, S59G
VL: B1 VL with V30L, V47L, D93N
notes: Group II

How the values were obtained:
[1] = target: T1, biotinylated goat anti-human kappa light chain; assay: ELISA, positive control
T1 construct: positive control of the ELISA
Outline: (§1)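 Binding signal was read by ELISA after ACVR2A-specific monoclonal antibodies were tested against human ACVR2A and mouse ACVR2A, with human Fc as the negative control.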

mouse ACVR2A = mouse ACVR2A (mouse, UniProt P27038 20-135, limits assumed); assay: ELISA
Chain of mouse ACVR2A (P27038 20-135 limits assumed): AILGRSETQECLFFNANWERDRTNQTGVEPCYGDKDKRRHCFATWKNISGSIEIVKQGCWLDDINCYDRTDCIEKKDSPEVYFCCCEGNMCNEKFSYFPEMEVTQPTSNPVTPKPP
Outline: as §1

human ACVR2A = target: T2, human ACVR2A (human, UniProt P27037 20-135, limits assumed); assay: ELISA
T2 construct: also called activin receptor, type II A
T2 sequence (P27037 20-135 limits assumed): as the sequence (P27038 20-135 limits assumed) above, with R20K, I73V counted along it
Outline: as §1
Note: test concentration or dose not given here.

Binder | optical density [1] [OD] | optical density (mouse ACVR2A) [OD] | optical density (human ACVR2A) [OD]
B1 | 3.39 | 2.9 | 2.63
B2 | 3.65 | 3.24 | 2.94
B3 | 3.62 | 2 | 1.85
B4 | 3.41 | 3.05 | 2.88
B5 | 3.17 | 3.36 | 3.3
B6 | 3.37 | 3.09 | 2.88
B7 | 3.48 | 2.66 | 2.26
B8 | 3.49 | 3.29 | 3.37
B9 | 3.41 | 2.99 | 2.8
B10 | 3.73 | 2.58 | 2.31
B11 | 3.75 | 3.47 | 3.38
B12 | 3.29 | 2.88 | 2.75
B13 | 3.17 | 3.06 | 2.75
B14 | 3.59 | 2.28 | 2
B15 | 3.37 | 3.36 | 3.15
B16 | 3.2 | 3.55 | 3.57
B17 | 3.11 | 3.58 | 3.26
B18 | 3.34 | 2.89 | 2.78

Binder | optical density [1] [OD] | optical density (mouse ACVR2A) [OD] | optical density (human ACVR2A) [OD]
B19 | 3.58 | 2.74 | 2.84
B20 | 3.51 | 2.12 | 1.82
B21 | 3.44 | 3.11 | 2.72
B22 | 3.47 | 3.08 | 2.83
B23 | 3.62 | 2.03 | 1.88
B24 | 3.59 | 3.26 | 3.18
B25 | 3.61 | 3.14 | 2.94
B26 | 3.44 | 2 | 1.89
B27 | 3.5 | 2.56 | 2.43
B28 | 3.53 | 1.17 | 1.01
B29 | 3.48 | 2.91 | 2.8
B30 | 3.6 | 3.24 | 3.05
B31 | 3.06 | 3.26 | 3.31
B32 | 3.7 | 2.99 | 2.68
B33 | 3.66 | 3.44 | 3.39
B34 | 3.66 | 2.88 | 2.92
B35 | 3.48 | 2.2 | 1.91
B36 | 3.23 | 3.52 | 3.4

Source: patent US20210380703A1 (RIGEL PHARMACEUTICALS, published 2021)
